Source: paper PMC6889490, “General structural features that regulate integrin affinity revealed by atypical αVβ8” (Nature Communications, 2019)
“Also recorded” adds a separate entry of the source. Each block holds one molecule with its values, some of them ahead of it. Ends that are not written are not given here. * marks the point of attachment. FITC = O=C1OC2(c3ccc(O)cc3Oc3cc(O)ccc32)c2ccc(NC(=S)*)cc21; Ahx = NCCCCCC(=O)O

Assays:
[1] = biological target: T1, αVβ8-WT headpiece (Homo sapiens, UniProt P06756+P26012, M430C/V301C); details: Mn2+; negative stain EM; cited from earlier work
T1 construct: residues 1–594 of the αV-subunit and 1–456 of the β8-subunit; made in house; host or cells: HEK293S GntI−/− cells
T1 sequence (P06756 31-624 M430C): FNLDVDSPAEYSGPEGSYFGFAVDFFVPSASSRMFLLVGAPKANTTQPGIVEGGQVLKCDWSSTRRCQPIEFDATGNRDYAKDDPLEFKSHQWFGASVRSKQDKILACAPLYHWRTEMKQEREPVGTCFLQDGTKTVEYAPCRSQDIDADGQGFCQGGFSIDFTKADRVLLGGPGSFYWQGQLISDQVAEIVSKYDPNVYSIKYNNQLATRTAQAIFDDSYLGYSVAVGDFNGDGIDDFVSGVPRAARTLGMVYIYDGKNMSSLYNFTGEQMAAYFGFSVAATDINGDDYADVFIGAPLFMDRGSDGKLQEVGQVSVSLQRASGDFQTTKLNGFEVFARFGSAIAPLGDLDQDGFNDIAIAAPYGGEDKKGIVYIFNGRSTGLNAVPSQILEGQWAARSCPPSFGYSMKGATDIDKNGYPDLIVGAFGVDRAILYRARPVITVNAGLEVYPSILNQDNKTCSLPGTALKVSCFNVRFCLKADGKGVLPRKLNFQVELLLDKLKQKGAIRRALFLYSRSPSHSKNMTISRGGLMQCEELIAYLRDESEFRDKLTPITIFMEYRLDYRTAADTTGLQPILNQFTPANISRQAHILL
T1 sequence (P26012 43-498 V301C): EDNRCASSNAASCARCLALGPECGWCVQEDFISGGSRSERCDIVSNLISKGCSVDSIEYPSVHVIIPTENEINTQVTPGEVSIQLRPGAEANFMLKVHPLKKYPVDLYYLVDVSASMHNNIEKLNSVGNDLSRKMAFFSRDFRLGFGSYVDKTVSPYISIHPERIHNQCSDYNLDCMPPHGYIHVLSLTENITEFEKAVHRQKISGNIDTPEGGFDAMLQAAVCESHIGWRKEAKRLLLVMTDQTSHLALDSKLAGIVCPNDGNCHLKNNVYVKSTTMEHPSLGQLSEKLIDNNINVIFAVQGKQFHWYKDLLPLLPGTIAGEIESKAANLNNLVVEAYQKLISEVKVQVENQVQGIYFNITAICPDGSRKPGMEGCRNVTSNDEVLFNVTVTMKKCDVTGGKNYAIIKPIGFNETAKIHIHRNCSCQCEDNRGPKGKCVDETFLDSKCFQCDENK

[2] = biological target: T2, αVβ8-mut6 headpiece (Homo sapiens, UniProt P06756+P26012, K165T/M430C/N161D/N162D/V301C); experiment: Negative stain EM headpiece opening, αVβ8-mut6; details: 1 mM Mn2+/0.2 mM Ca2+
T2 construct: residues 1–594 of the αV-subunit and 1–456 of the β8-subunit; made in house; host or cells: Expi293 cells (transient)
T2 sequence (P06756 31-624 M430C): as the sequence (P06756 31-624 M430C) above
T2 sequence (P26012 43-498 N161D/N162D/K165T/V301C): as the sequence (P26012 43-498 V301C) above, with N119D, N120D, K123T counted along it
From the text: Fig. 7 Regulation of ligand-binding affinity by atypical and typical residues in αVβ8 and αVβ6. a Mutations corresponding to sequence exchanges between αVβ8 (black) and αVβ6 (red) and effect on affinity for FITC-labeled TGF-β3 ligand peptide (GRGDLGRLKK) in presence of Mg^2+ and Mn^2+. […] As in statistical models for determining p values, the fit assumes that errors are independent and normally distributed. The reported fit minimizes the sum of the squared errors. […] Source data for a, b are provided as a Source Data file. c Representative negative stain class averages of mutant or WT integrin headpieces alone (upper panels) or complexed with pro-TGF-β1. Representative 2:1 pro-TGF-β1:integrin class averages are shown. The WT integrin class averages shown for comparison are previously published. d, e Residues in regions of βI domain allostery with unusual properties in αVβ8 (d) are compared to counterparts in αVβ6 (e). […] Mn^2+: 0.37 [0.18, 0.55] […]
αVβ8-mut3 or αVβ8-mut6 (15 μg) were mixed with pro-TGF-β1 at molar ratio 1.5:1 in 50 μl of HBS buffer containing 1 mM Mn^2+/0.2 mM Ca^2+ for 30 min and injected in a 24 ml Superdex 75 gel filtration column pre-equilibrated with HBS buffer (20 mM HEPEs, pH 7.5, 150 mM NaCl, 1 mM Mn^2+/0.2 mM Ca^2+). The 2:2, 2:1 complexes and unbound αVβ8 and pro-TGF-β1 were well separated. […]

[3] = system: D8/D9 αVβ8; details: D8/D9 αVβ8 compared to WT; cited from earlier work
From the text: Mn^2+ increases affinity of αVβ6 in part by stabilizing headpiece opening. […] Results with αVβ8 were more complex. Substitution of one or both A ...

[4] = biological target: αVβ6-WT; experiment: Fluorescence polarization saturation binding, αVβ6-WT; details: 2, 5 and 10 nM probe, repeat1 and repeat2, 2 replicates each
From the text: As in statistical models for determining p values, the fit assumes that errors are independent and normally distributed. The reported fit minimizes the sum of the squared errors. […] Source data for a, b are provided as a Source Data file. c Representative negative stain class averages of mutant or WT integrin headpieces alone (upper panels) or complexed with pro-TGF-β1. Representative 2:1 pro-TGF-β1:integrin class averages are shown.

[5] = biological target: T3, pro-TGF-β3 peptide (Homo sapiens); experiment: fluorescence polarization
T3 chain: {FITC-Ahx}-GRGDLGRLKK

[6] = biological target: T4, pro-TGF-β3 peptide (Homo sapiens); experiment: fluorescence polarization
T4 chain: {FITC-Ahx}-GRGDLGRLKK

Molecule: pro-TGF-β1: Human pro-TGFβ-1 with a R249A cleavage site mutation
- headpiece conformation when bound to pro-TGF-β1 [1]: remained closed
- headpiece conformation when bound to pro-TGF-β1 [2]: remained closed; also recorded: neither mutant showed the open headpiece

Molecule: vitronectin: vitronectin, integrin ligand measured in cell binding in a cited study
- amount of vitronectin binding to cells [3]: decreased binding of D8/D9 αVβ8 compared to WT

- Kd ([4]; Mg fitting results, Std.Error 1.672e-10, 99% confidence interval 2.49E-09 (lower), 3.37E-09 (upper)): 2.93 nM
- Kd ([4]; Mn fitting results, Std.Error 5.139e-11, 99% confidence interval 1.21E-10 (lower), 3.88E-10 (upper)): 0.254 nM
Molecule: avb6-WT

- Kd [5]: 30 nM
B1: Integrin αVβ8 headpiece αV 1-594 + β8 1-456 (protein)
chain 1: FNLDVDSPAEYSGPEGSYFGFAVDFFVPSASSRMFLLVGAPKANTTQPGIVEGGQVLKCDWSSTRRCQPIEFDATGNRDYAKDDPLEFKSHQWFGASVRSKQDKILACAPLYHWRTEMKQEREPVGTCFLQDGTKTVEYAPCRSQDIDADGQGFCQGGFSIDFTKADRVLLGGPGSFYWQGQLISDQVAEIVSKYDPNVYSIKYNNQLATRTAQAIFDDSYLGYSVAVGDFNGDGIDDFVSGVPRAARTLGMVYIYDGKNMSSLYNFTGEQMAAYFGFSVAATDINGDDYADVFIGAPLFMDRGSDGKLQEVGQVSVSLQRASGDFQTTKLNGFEVFARFGSAIAPLGDLDQDGFNDIAIAAPYGGEDKKGIVYIFNGRSTGLNAVPSQILEGQWAARSMPPSFGYSMKGATDIDKNGYPDLIVGAFGVDRAILYRARPVITVNAGLEVYPSILNQDNKTCSLPGTALKVSCFNVRFCLKADGKGVLPRKLNFQVELLLDKLKQKGAIRRALFLYSRSPSHSKNMTISRGGLMQCEELIAYLRDESEFRDKLTPITIFMEYRLDYRTAADTTGLQPILNQFTPANISRQAHILLDCGEDNVCKPKLEVSVDSDQKKIYIGDDNPLTLIVKAQNQGEGAYEAELIVSIPLQADFIGVVRNNEALARLSCAFKTENQTRQVVCDLGNPMKAGTQLLAGLRFSVHQQSEMDTSVKFDLQIQSSNLFDKVSPVVSHKVDLAVLAAVEIRGVSSPDHVFLPIPNWEHKENPETEEDVGPVVQHIYELRNNGPSSFSKAMLHLQWPYKYNNNTLLYILHYDIDGPMNCTSDMEINPLRIKISSLQTTEKNDTVAGQGERDHLITKRDLALSEGDIHTLGCGVAQCLKIVCQVGRLDRGKSAILYVKSLLWTETFMNKENQNHSYSLKSSASFNVIEFPYKNLPIEDITNSTLVTTNVTWGIQPAPMPV
chain 2: EDNRCASSNAASCARCLALGPECGWCVQEDFISGGSRSERCDIVSNLISKGCSVDSIEYPSVHVIIPTENEINTQVTPGEVSIQLRPGAEANFMLKVHPLKKYPVDLYYLVDVSASMHNNIEKLNSVGNDLSRKMAFFSRDFRLGFGSYVDKTVSPYISIHPERIHNQCSDYNLDCMPPHGYIHVLSLTENITEFEKAVHRQKISGNIDTPEGGFDAMLQAAVCESHIGWRKEAKRLLLVMTDQTSHLALDSKLAGIVVPNDGNCHLKNNVYVKSTTMEHPSLGQLSEKLIDNNINVIFAVQGKQFHWYKDLLPLLPGTIAGEIESKAANLNNLVVEAYQKLISEVKVQVENQVQGIYFNITAICPDGSRKPGMEGCRNVTSNDEVLFNVTVTMKKCDVTGGKNYAIIKPIGFNETAKIHIHRNCSCQCEDNRGPKGKCVDETFLDSKCFQCDENKCHFDEDQFSSESCKSHKDQPVCSGRGVCVCGKCSCHKIKLGKVYGKYCEKDDFSCPYHHGNLCAGHGECEAGRCQCFSGWEGDRCQCPSAAAQHCVNSKGQVCSGRGTCVCGRCECTDPRSIGRFCEHCPTCYTACKENWNCMQCLHPHNLSQAILDQCKTSCALMEQQHYVDQTSECFSSPSYLR

- Kd [6]: 12 nM
B2: Integrin αVβ6 headpiece headpiece (protein)
chain 1: B1 chain 1
chain 2: GCALGGAETCEDCLLIGPQCAWCAQENFTHPSGVGERCDTPANLLAKGCQLNFIENPVSQVEILKNKPLSVGRQKNSSDIVQIAPQSLILKLRPGGAQTLQVHVRQTEDYPVDLYYLMDLSASMDDDLNTIKELGSRLSKEMSKLTSNFRLGFGSFVEKPVSPFVKTTPEEIANPCSSIPYFCLPTFGFKHILPLTNDAERFNEIVKNQKISANIDTPEGGFDAIMQAAVCKEKIGWRNDSLHLLVFVSDADSHFGMDSKLAGIVIPNDGLCHLDSKNEYSMSTVLEYPTIGQLIDKLVQNNVLLIFAVTQEQVHLYENYAKLIPGATVGLLQKDSGNILQLIISAYEELRSEVELEVLGDTEGLNLSFTAICNNGTLFQHQKKCSHMKVGDTASFSVTVNIPHCERRSRHIIIKPVGLGDALELLVSPECNCDCQKEVEVNSSKCHHGNGSFQCGVCACHPGHMGPRCECGEDMLSTDSCKEAPDHPSCSGRGDCYCGQCICHLSPYGNIYGPYCQCDNFSCVRHKGLLCGGNGDCDCGECVCRSGWTGEYCNCTTSTDSCVSEDGVLCSGRGDCVCGKCVCTNPGASGPTCERCPTCGDPCNSKRSCIECHLSAAGQAREECVDKCKLAGATISEEEDFSKDGSVSCSLQGENECLITFLITTDNEGKTIIHSINEKDCPKPPNIP
